Source: the DeepSol protein solubility set

assay: soluble on expression in E. coli; label from the status in PepcDB or PDB records

Sequence | soluble on expression in E. coli
MSLEDSEQIQILQHLISINSVNDHEADVAAYIQQLFADHGITSQVIPYADGRANIIAEIGDTTSDQVFALAGHLDTVATGDVADWKFDPFSAHIVDNQLYGRGAADMKSGLAAMVITLINLADQQTPLTGRLRFIGTVGEENGAMGSRMLTEKGVADDLTAMVIGEPTGGNLVYAHNGSLNYHVYSRGVGAHSSMPEKGINAITNLIKYVTAEATAFDDAPVSPELGPLVHSVTVFNGGEQVNSIPAKAELQGNIRPIPEFDNTAVIHRLHETVDRLNQEPGVDLALHVDYSFKPIISAKDSPLVQTTKAIADQEFGHAIDLQVIHGATDASEFTKSSHDFPVIVYGAGKWDAAHALNESVDLDEFRHVQHVYQQLVEKFLSEGHHHHHH | soluble
MSLVSVIILASGNSQRMGQNKLFLKYQGKTFLEHTLTLVNQLDVLERILVVSPENQPAFPLPKNIQLILNHQWQEGQSSSIRLGTEQARGAGYLYLPSDQPLLTPKMLQLVLDKCQRNKIVVPLQKDGCPSSPVLFGNQFRQELLTLTGEKGGRMIYERFPEAVQMLRIATPGRLKDIDTPEEYQKLIQETNSLEHHHHHH | not soluble
MVSLSDLASYPICRRCAGRIFAMVGTGLTNLERGSMLEFSIKCEKNDPEFNFADPQNCEICHGIFDKFSVFLSLVEDKLKEIEYSTFVVGSVFPKEWIELENKIQEAFGAHGESIKKEFNREFGKYITAKTGKEYRKEDPDITIAVNVEYEFVNVSIKSLFIYGKYRKYRRDMPQTRWIHKKDGDSIESIIGEAALRIAGGKNYYLHGSGREDVDVRMLGNGREFVIEVEAPIMRTFDLSILSETVNRSMKGVEIFDLSFVDRKTVKEIKEEKHSKVYDCIIEGDTDIDKLKLEEACTEMNGKNIYQRTPLRVAQRRSDLIRTRKIERMELVAVEGKEAEIVVQAEAGTYIKELISGDSGRTNPSLSSKYGSQLNVKELDVIKICRGELEHHHHHH | not soluble
MKHSVNAMAGGHGAARYNSTDLPKLPAPQPIKTLKHFLDFAQALQSKKEFQETKQIVNDFVVKDLPKLQELLQKRADALPNWLTPWWLNIAYLAARTPLPVVTSPGVMFPKFDYNTEEGQLEYAAKISQAAVHFYLRAKNNQLKPDMAGKSPLDMSQYQFLFGTTRVPKVGVDEIRYGCDYKEKLQHILVIRNGHLFRVQVLDSNEQPLSIFAITQQLAKVVSESQTPNPHPVGIVSSDSRDKWANVYSSLKKDNNNAKSLEAVEKSLFVVCLDKASEPPVGYTEKDEQSRQALHGGGSKVNSSNRWFDKTIQFVIGTNGYTGMTYEHTPAEGPPVGALMDFICDQFDANTFITEGTPSNSPVQRLDISTDEEINKRIAKSSKNMDSIAEDLDIVAFTFKPYGKNFPKSSKISPDSFIQMAYQLAFYRIHSSLPPTYETATLRKFTEGRTENIRSPNTAAASFVKKMVSKPPTPVSEIYDALVHATNSHKKYTMDCMDAAGMDRHLLAWKLIATENNLPTPEIFGSNIYQQLNHFQVSTSQVPTRHFIQMCFGPSALDCYGICYNPQETELHFMISTFKSYGSTSSKKFAKELQKALIDMKSVINKATKEMSKL | not soluble
AKDAVLSVDGIIVARSSNEITDLIPGATLALSGKTTDPATLSVSRDTQLAEAAMTYMVEELNATMKLLGELTRRSTDGSGSGELAGDRVVETLKRQVTALIGQPLTGHGEKPVYLSQLGVSTNRDGSLSFNASAFQKAFEKTPQIFDAMFTDSLTAITPGASIAGKAASSAASGDYIFRLDPVTGEATVGGGATLALPGANGASQYLVLSGGLAGVMVSVESGVTDATLRFGRSFATQLQALLDTAAGQNGAISDREGQIGKVAEEQAKVIEALDARAAKLESRYLAQFTAMEQAVSRMKSTGTYLENLISAWNKD | not soluble
MNSTYQLFIDVTSRKCILAIYKNFKIHTSIIVDTNNNLTDIIVEHLNNLLKITNLQYQDLEAIYLNTGPGSFTGIRVGAIVAKTICTIFNKIKLFINDSLNIIANGKNDVFVYLDAKGNKSYVITITNNIQNEYKIITNKELQNELKNTSLTIIDANQIDYHDLIYNLKFDNFKLTNILDFRLNYVKKPLNLEHHHHHH | not soluble
MGSDKIHHHHHHGTSGTSKSSKTQLTGQSSDGDYEGVIKSGHYQTSKSRGVTNSQDSGNTYNVKSFENGMLGVSKKVFSTKSYVFQEGQYLSSSTVQNWLDRKTKSNPTGLNPKSNGSTSPTKRNPVYIQALEEQDYMTQKNNKLSLGGVTIGIAVNSVDYYKKTQYGATYETKITKAEGEAYAKKAANTVLKRLRKKSALKNVPIVIAIYRQASNDSLVGGNFIAYSENKGSATTVSKWNALSEKNYVFPIESGSSSPNSNDETSFTNFKSQVENFFPNLSGVTAQAHYSGNTLTGMHVNITTQFYSQTEIISFTQYLQTAAQKYLPSSVPIDITVSSTDSVQSFLSRSSGAKKFTSHVFNSY | not soluble
MEFTLLGWPEDGHRLRLDYKQFAYAGKFVMTSTGKAVIGDDGVVAAAAFDADRTDPDTLCVRYITVRQDRQGDRLGARLLRFVRERATERGFEHVSIGVNNPFSYQAAYRAGFCFSGAESGMAELDLVWPGDRSTERYQAGLDLFRERDLSPDEESFLAAKADADPPTVLNEWAEQPSARTD | not soluble
GQDSEVLLDGVAKLSSHNNVIEDAIEGVDLTLKGKSEPNKPPAEIGVEYDRQSVRSDIENFVSAYNSFYQTSQALSSVDPTTGQKGPLAGDSTVRSADSRLKAVFSSRIDQAPENLKSLTEFGITTTRQGTLEINYDMLDRQLNNNFNELEKFFGGNTGFAKRIEDAIHGITGITGSIRTREKSLTEQNYRLNDDQAALDRRMEGLEKRTHAKFTAMQDATGKMQGQLGALMSALG | not soluble
MKTIHIRELADWLDGALQAARFKDYCPNGLQVEGKAEIAHIITGVTASEALLRAAIERGADAVLVHHGWFWRNEDRRVLGPRRTRLALALGHELNLLAYHLPLDAHPQWGNNAQLARVLGLQAETGPDGAPRTCGADNLVWLGSAPGVQTVAQLQQRVAERLGRTPLVVGEPDRPVRRVAWCTGGAQGMLADAVDAGADAYITGEASESTVHLARETGVAFVGAGHHATERYGVQALGEAVARQFGIRVEFIDIDNPVLEHHHHHH | not soluble
MADSSSFFSSAFSSAKNLIPFAKNTEDKPVDADTASDAKDAKDSAIQEAVQNASAAINDVFTDAVDKLEEVKDTVVEQFSNGDEKKEEAVVEEKFDSVHVGVDGETAVQEAKEEVKEAQVVVKGVLADGTQIVEGVTDVAEAPVADEKKEETVAAPLDSAAPVEEHKEESHSSEHTEAPAHTEDSIVQADPEARIVFQGVLADGTQIIEAVSANPPCIQEESAPAAAVSEEVGEAVHVVPVDQAPEAPTSEAQDAAPIEEHVEVVHVAENASTPAATDAHEETKSAEEQTPVVDASPAQEIVKVEEHEHKEEAAPDESAPEAAHDSHVEETAAQVVDEVIEAVHVSANESAPEEHKEEVAAAATSEDQKEPAPASDEHTSESAVEGAIESVHIALTESAPVASDENTTEAAPGTVEEHKNEVHDPVDGASSDAPAEDHREAAASSESVEEPITAVHVEATESAAPADKVHEETKIDSAAETHADAPVVDASPAEDQASEVTEAPHVESAKSAPATSEDHKEDVAQATSEQVETQAPADEHKDDASPAEPTTVQDVIEAIPIVSTESTPAEHSAPAESAPALAEEHKDEAAPSEPVQDVPVEEVIEAVHIAPAESAPASVEEAAPSESTQAPVEEHKDATTAADSSHEEPKAESDAPAAESVETAPVEEHKDEASPTALESVEDVIEAVHVASTESAPAPVEDAASADSTQAPVEEQKDTAAAAEPSHEEAQADHAASVEDVIEAVHIASNESAPTTEAAPSESIQAEDHKDEAASTAEPAHEESVTVVEASHKEPQAESAAPVEENIESVHVASEESAPAPSGDAAPSESAPVSENPVEEVAVAYHVESIESVPTDAQSVEEPVVQQHVGTVEAAPEAAVDEESFDVVHVHSDAAHPETATPESGSEETFEKVEHSQVQEAPSSEEHNSSEPEIVEDVVEKQIVAAVASAPETQPEESPKKPRKLAEMAHESAFPVPYRSKLVEPFEPGQTLIVKGKTGEDSIRFTVNLHTNTADFSGNDVPLHVSVRFDEGKLVFNTFSKGEWGKEERKSNPYKKGDDIDIRIRAHDSKFQIFVDQKEVKEYEHRVPLSSITHFTIDGDVLVNYIHWGGKYYPVPYESGLAGEGLAPGKTLTVFGIPEKKAKRFHINLLKKNGDIALHLNARFDEKHVVRNSLINSAWGNEEREGKMPFEKAVGFDLEIHNEPYAFAVTVNGERFASYAHRLSPDEVNGLQIGGDVEITGIQLA | not soluble
MKREKKSFHLHMLSDATGETLISVGRAVASQYTMSQATEHIYPMIRNKTQLQRALDEIQQEPGIVLYTIIDKKIKILLRKRCEKIEIPCIDILHPVLNAFKSYLGIPTNLRVSAQHGLNADYFRRIEALDFTIEHDDGQSPNSLSDADVILVGISRTSKTPTSIYLANRGIKTANVPLIPGINLPDTLLGAKNALIIGLIASVERISHIRQNRNLGDDFSLESYTDRINISEELTYAKRICERFSWPVIDVTRRSIEETAAEIFELLSRFREGK | not soluble
MSLNPEEEVITLMKKAGIDLVATLPCDRIKNLLPLVSKNFPEIKMTREENGVGICAGFYLAGGKPLMLIQSTGLGNMINALESLNVTCKIPLPVLTSWRGVYKEAIEAQVPLGVHLPAILEGAGLAYTIIDEVEKLHQIENVISDAFENSRPHIALISPKVWEASECCAWQGAGMPEKPEVMERTCSIFLKKEVLKPVMLRNDAICAIASELDDEVTVTNLGVPCKELYACKDRDLNFYMFGSMGLVSSIGMGIALRSEKTVVAFDGDGSLLMNPNALLEIAKESPKNLIIIALDNGAYGSTGSQETCALRYIDLEIFANACGITNTAKVNAREELIKIFKKFRDMKELALIHVILKPGNTNAPNIPLSPEGAAKRFKEALEAKKNEGHHHHHH | soluble
MGSDKIHHHHHHMVGNYRGMGRFARQLVEPVGASVLGLAPSGVHADEWPCVSQGHGFFPWWEQVELPRLCREQRLDYLLCPYNTGPLRSTGNTRVVAVIHDLIYMEPWHVLPPARSVYQTVGRVYRRHVVPRLVRRADVVLTVSRFTQRELVKKFELREGDVRVVPCTISDDWFEPPVSRTARQPYLFTVAGEVPSKNVGRLLQAFAIARPALGDDARLRIAGIKAEHHAHFLGLADSLGLTNAVELLGYVSREELREQYRQARAFVFASLFEGFGIPLLEAMASGTPVACSNTTSMPEIAGNCALQFDPRSVEDMAEQIRAIWDDSARFEVALGDGVNRARTYSESAVRPSIEDFWAGLA | not soluble
MTETGGRHLLEALTLCEVILSRYKRCGLQVDETETKAFQAVSERFHEITHATQGDNAAFVKSQKIIKMAPAIPTIGAVFQTPLESVTKLMEKCIDLCLPIKEVFIMLNEQISAVLRTKNTRTYYLDSGDDLLKDPVNGIAALVDERTPLGKTLFCTRPFSIAGTLYIPLLHNETVIGCVESPSGRTDYHSQAIIDAVLRVAATVIHNTIESERLNWNKEKAEAMLTMATQLARDNLDEAVLANSIMNTAKVLTESDRCSIFLVKDDTLEAHFEDGNIVAIPIATGIAGYVAQTGQTVKISDAYSDDRFNREVDKATGYRTKTILCMPVTYEGSIVAVAQLINKLDMVTESGLRLPRTFGKRDEELFQTFSMFAGASLRNCRINEKLINEKRKSDAILDVVTLLSNTDIRDVDGIVRHVLHGAKRLLYADRSALFLVDKERNELYSRIADSVAGKEIRFPCGQGIAGVVASTGIGENILDAYQDPRFNREVDKQLGYRTQTLLCEPIVLNGEILAVVQLVNKLNEAGEVTVFTESDRETFRVFSLFAGISINNSHLLEFAVKAGREMMELNENRALAGGRTGSLRNIKRPLAITETERQAVRDINLAHLDITSIDFDLFYLRENMDLPLDAAAAVAYRLIVGTGLPQKFRCRDDTLLNFILQCRKKYRNVPYHNFYHVVDVCQTIYTFLYKGAVCEKLTELDCFVLLVTALVHDLDHMGLNNSFYLKTDSPLGILSSASGNASVLEVHHCNLAVEILSDPDSDVFEGLDATDRTLAYRSMIDCVLATDMAKHNELLSLFLVAMEKPYRIGDVASRQMMMDVIVKAGDVSNVTKPFDISRLWAMAVTEEFYRQGDMEKEKGVEVLPMFDRSKNTELAKGQIGFIDFVAGPFFKKIVSASLTGMQWTVERVESNRLEWQRTLDLKAAGDGNK | not soluble
